Km, kcat and kcat/Km data for two proteins are collected here from article PMC2773364.

Substrate in series [1]: O=C(O)CC[C@H](NC(=O)OCc1ccccc1)C(=O)N[C@@H](Cc1ccc(O)cc1)C(=O)O
Put plainly: purified protein. Conditions: 50 mM acetate buffer, pH 3.7, 30°C.

Substrate in series [2]: CC(C)C[C@H](NC(=O)OCc1ccccc1)C(=O)N[C@@H](Cc1ccc(O)cc1)C(=O)O
Kind of series: purified protein. Particulars: 50 mM acetate buffer, pH 3.7, 30°C.

By Km is commonly meant the concentration of substrate that gives half-maximal velocity. As a reminder, the kcat is the number of substrate molecules converted per active site and unit of time at saturation. Usually kcat/Km stands for the second-order rate constant that governs catalysis at low substrate concentration.

B1: recombinant CpI (Aspergillus oryzae RIB40) (protein)
chain: LPGSTPASVGRRQLPKNPTGVKTLTTANNVTIRYKEPGAEGVCETTPGVKSYSGYVDTSPESHTFFWFFEARHNPETAPITLWLNGGPGSDSLIGLFEELGPCHVNSTFDDYINPHSWNEVSNLLFLSQPLGVGFSYSDTVDGSINPVTGVVENSSFAGVQGRYPTIDATLIDTTNLAAEAAWEILQGFLSGLPSLDSRVQSKDFSLWTESYGGHYGPAFFNHFYEQNERIANGSVNGVQLNFNSLGIINGIIDEAIQAPYYPEFAVNNTYGIKAVNETVYNYMKFANQMPNGCQDLISTCKQTNRTALADYALCAEATNMCRDNVEGPYYAFAGRGVYDIRHPYDDPTPPSYYNKFLAKDSVMDAIGVNINYTQSNNDVYYAFQQTGDFVWPNFIEDLEEILALPVRVSLIYGDADYICNWFGGQAVSLAANYSQAAQFRSAGYTPLKVNGVEYGETREYGNFSFTRVYEAGHEVPYYQPIASLQLFNRTIFGWDIAEGQKKIWPSYKTNGTATATHTQSSVPLPTATSMSSVGMA
Consider B1, for which, in the series “purified protein [1]”, the Km was determined as 270 µM, the turnover number (kcat) is 20.1 s⁻¹ and the kcat/Km came out at 73200 M⁻¹ s⁻¹. For the same protein, in the series “purified protein [2]”, the Km turned out to be 340 µM, the kcat was 30.3 s⁻¹ and the kcat/Km was 89800 M⁻¹ s⁻¹.

B2: recombinant OcpA (Aspergillus oryzae RIB40) (protein)
chain: YVNNSGICETTKGVNQYSGYLSVGENQNMFFWFFESRNNPQQAPLSAWFNGGPGCSSMIGLFQEHGPCHFVNGEDTPSLNEHSWNNFANMLYIDQPIGVGFSYGDNPVNSTWTAAPYVWKFLQAFYEHFPQYESRDFGIFTESYGGHYGPGFASYILDQNNAIEAGSQKGEKVNLVALGINNGMFDSTLQEKAYITFAYNNTYRQLIDESLKDKLLEAYESECLPAVQKCQQTQTNEDCQNAGSVCGESVENPIMQAGGDFDVYDVREPSNDPNPPETYSKYIARPDIMKAIGARSDYQECADAPGQKFGATGDEYRSTLPDLSEVIKAGVNVLVWAGTADYICNVDGSIAVANAVDFSGHDEFQGKALEAYKVNGKEVGQFKSVDNFHLLTVYDAGHEVPYYQPETALQAFTQILQKKPLSST
Regarding B2, in the series “purified protein [1]”, the Michaelis-Menten constant (Km) is 260 µM, the kcat worked out at 22.7 s⁻¹ and the kcat/Km was 85900 M⁻¹ s⁻¹. Moreover, in the series “purified protein [2]”, the Michaelis-Menten constant (Km) came to 410 µM, the kcat was found to be 18 s⁻¹ and the kcat/Km worked out at 43900 M⁻¹ s⁻¹.
